Consider 94 variants from the supplement of paper PMC10567573.

To fix the notation:
B1: KLHL12 (parent)
chain: LDYTADEDGVWYSVAPMNVRRGLA
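Further: lentivirally expressed fusions sorted by FACS into six bins by GFP to DsRed ratio, PSI derived from sequencing read proportions per bin multiplied by bin number.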

In the data set the parent is B1. Nature of the data set: protein stability index of a GFP-peptide fusion (GPS, HEK-293T) (PSI 1-6); higher = more stable. Particulars: c terminus: a fixed tail appended.
Regarding LDYTADEDGVWYSIAPMNVRRGLA [V14I], the protein stability index is 1.67.

Turning to LDYTADEDGVWYSKAPMNVRRGLA [V14K], the protein stability index was 4.17.

On to LDYTADEDGVWYSWAPMNVRRGLA [V14W], for which the protein stability index was determined as 2.

As to LDYTADEDGVWYSQAPMNVRRGLA [V14Q], the protein stability index was 3.31.

As for LDYTADEDGVWYSGAPMNVRRGLA [V14G], the protein stability index is 2.83.

As to LDYTADEDGVWYSSAPMNVRRGLA [V14S], the protein stability index is 2.96.

In the case of LDYTADEDGVWYSAAPMNVRRGLA [V14A], the protein stability index was determined as 2.76.

In the case of LDYTADERGVWYSVAPMNVRRGLA [D8R], the protein stability index came out at 1.56.

For the variant LDYTADEQGVWYSVAPMNVRRGLA [D8Q], the protein stability index came to 2.49.

With LDYTADEAGVWYSVAPMNVRRGLA [D8A], the protein stability index was 1.67.

As for LDYTADEYGVWYSVAPMNVRRGLA [D8Y], the protein stability index stood at 2.23.

Take LDYTADEFGVWYSVAPMNVRRGLA [D8F]: the protein stability index came out at 1.21.

For LDYTADEEGVWYSVAPMNVRRGLA [D8E], the protein stability index came out at 2.79.

As to LDYTADEMGVWYSVAPMNVRRGLA [D8M], the protein stability index worked out at 1.93.

On to LDYTADEWGVWYSVAPMNVRRGLA [D8W], for which the protein stability index was determined as 2.1.

LDYTADELGVWYSVAPMNVRRGLA [D8L]: the protein stability index turned out to be 1.73.

On to LDYTADEDGVWESVAPMNVRRGLA [Y12E], for which the protein stability index came to 4.04.

As for LDYTADEDGVWKSVAPMNVRRGLA [Y12K], the protein stability index turned out to be 3.63.

For LDYTADEDGVWHSVAPMNVRRGLA [Y12H], the protein stability index is 3.24.

In the case of LDYTADEDGVWISVAPMNVRRGLA [Y12I], the protein stability index was 1.89.

Regarding LDYTADEDGVWSSVAPMNVRRGLA [Y12S], the protein stability index was 3.12.

Regarding LDYTADEDGVWVSVAPMNVRRGLA [Y12V], the protein stability index stood at 2.32.

Consider LDYTADEDGVWFSVAPMNVRRGLA [Y12F], for which the protein stability index is 2.23.

On to LDYTADEDCVWYSVAPMNVRRGLA [G9C], for which the protein stability index stood at 1.47.

In the case of LDYTADEDQVWYSVAPMNVRRGLA [G9Q], the protein stability index was 2.21.

LDYTADEDDVWYSVAPMNVRRGLA [G9D]: the protein stability index came out at 2.63.

With LDYTADEDTVWYSVAPMNVRRGLA [G9T], the protein stability index worked out at 2.15.

Take LDYTADEDRVWYSVAPMNVRRGLA [G9R]: the protein stability index amounted to 1.75.

For the variant LDYTADEDYVWYSVAPMNVRRGLA [G9Y], the protein stability index was 2.37.

For the variant LDYTADEDAVWYSVAPMNVRRGLA [G9A], the protein stability index stood at 2.17.

Turning to LDYTADEDSVWYSVAPMNVRRGLA [G9S], the protein stability index turned out to be 2.03.

With LDYTADEDVVWYSVAPMNVRRGLA [G9V], the protein stability index was 1.82.

For the variant LDYTADEDEVWYSVAPMNVRRGLA [G9E], the protein stability index worked out at 2.33.

As to LDYTADPDGVWYSVAPMNVRRGLA [E7P], the protein stability index was found to be 2.02.

LDYTADIDGVWYSVAPMNVRRGLA [E7I]: the protein stability index turned out to be 2.43.

Take LDYTADRDGVWYSVAPMNVRRGLA [E7R]: the protein stability index was 2.77.

For the variant LDYTADMDGVWYSVAPMNVRRGLA [E7M], the protein stability index was found to be 1.91.

As to LDYTADYDGVWYSVAPMNVRRGLA [E7Y], the protein stability index is 1.95.

As for LDYTADKDGVWYSVAPMNVRRGLA [E7K], the protein stability index came to 2.01.

With LDYTADVDGVWYSVAPMNVRRGLA [E7V], the protein stability index worked out at 1.44.

Take LDYTADWDGVWYSVAPMNVRRGLA [E7W]: the protein stability index worked out at 2.19.

With LDYTADSDGVWYSVAPMNVRRGLA [E7S], the protein stability index was 1.8.

Consider LDYTADHDGVWYSVAPMNVRRGLA [E7H], for which the protein stability index is 1.89.

On to LDYTADTDGVWYSVAPMNVRRGLA [E7T], for which the protein stability index stood at 1.64.

Consider LDGTADEDGVWYSVAPMNVRRGLA [Y3G], for which the protein stability index is 3.22.

As for LDNTADEDGVWYSVAPMNVRRGLA [Y3N], the protein stability index was found to be 3.78.

For LDETADEDGVWYSVAPMNVRRGLA [Y3E], the protein stability index was 3.6.

For LDITADEDGVWYSVAPMNVRRGLA [Y3I], the protein stability index was 1.85.

For LDSTADEDGVWYSVAPMNVRRGLA [Y3S], the protein stability index was 3.61.

Regarding LDYTADEDGVWYSVAPMNVRRGLW [A24W], the protein stability index stood at 2.46.

LDYTADEDGVWYSVAPMNVRRGLD [A24D]: the protein stability index came out at 1.82.

Regarding LDYTADEDGVWYSVAPMNVRRGLI [A24I], the protein stability index amounted to 1.88.

Consider LDYTADEDGVWYSVAPMNVRRGLK [A24K], for which the protein stability index is 2.35.

As to LDYTADEDGVWYSVAPMNVRRGLQ [A24Q], the protein stability index was determined as 2.03.

LDYTADEDGVWYSVAPMNVRRGLC [A24C]: the protein stability index amounted to 1.77.

Take LDYRADEDGVWYSVAPMNVRRGLA [T4R]: the protein stability index was found to be 1.51.

In the case of LDYMADEDGVWYSVAPMNVRRGLA [T4M], the protein stability index is 2.48.

Take LDYYADEDGVWYSVAPMNVRRGLA [T4Y]: the protein stability index is 2.57.

For LDYNADEDGVWYSVAPMNVRRGLA [T4N], the protein stability index was determined as 2.24.

Consider LDYGADEDGVWYSVAPMNVRRGLA [T4G], for which the protein stability index is 2.1.

With LDYSADEDGVWYSVAPMNVRRGLA [T4S], the protein stability index came to 2.81.

On to LDYDADEDGVWYSVAPMNVRRGLA [T4D], for which the protein stability index turned out to be 2.41.

Take LDYQADEDGVWYSVAPMNVRRGLA [T4Q]: the protein stability index came to 2.45.

Regarding LDYHADEDGVWYSVAPMNVRRGLA [T4H], the protein stability index is 1.77.

With LDYIADEDGVWYSVAPMNVRRGLA [T4I], the protein stability index worked out at 2.12.

On to LDYTADEDGVWYSVAPMNCRRGLA [V19C], for which the protein stability index came to 1.7.

For the variant LDYTADEDGVWYSVAPMNIRRGLA [V19I], the protein stability index is 2.42.

Consider LDYTADEDGVWYSVAPMNYRRGLA [V19Y], for which the protein stability index is 1.78.

As to LDYTADEDGVWYSVAPMNPRRGLA [V19P], the protein stability index stood at 2.11.

As to LDYTADEDGVWYSVAPMNGRRGLA [V19G], the protein stability index is 1.95.

Take LDYTADEDGVLYSVAPMNVRRGLA [W11L]: the protein stability index came out at 3.21.

In the case of LDYTADEDGVKYSVAPMNVRRGLA [W11K], the protein stability index was 3.18.

With LDYTADEDGVMYSVAPMNVRRGLA [W11M], the protein stability index is 2.72.

With LDYTADEDGVPYSVAPMNVRRGLA [W11P], the protein stability index turned out to be 3.56.

Regarding LDYTADEDGVCYSVAPMNVRRGLA [W11C], the protein stability index amounted to 3.05.

For LDYTADEDGVRYSVAPMNVRRGLA [W11R], the protein stability index was 2.8.

Regarding LAYTADEDGVWYSVAPMNVRRGLA [D2A], the protein stability index turned out to be 2.3.

For the variant LGYTADEDGVWYSVAPMNVRRGLA [D2G], the protein stability index turned out to be 2.96.

On to LKYTADEDGVWYSVAPMNVRRGLA [D2K], for which the protein stability index was 1.68.

In the case of LMYTADEDGVWYSVAPMNVRRGLA [D2M], the protein stability index was determined as 2.4.

Consider LDYTADEDGVWYSVAPMNVRSGLA [R21S], for which the protein stability index is 1.72.

In the case of LDYTADEDGVWYSVAPMNVRYGLA [R21Y], the protein stability index turned out to be 1.47.

Consider LDYTADEDGVWYSVAPMNVRPGLA [R21P], for which the protein stability index worked out at 1.8.

Consider LDYTADEDGVWYSVAPMNVRDGLA [R21D], for which the protein stability index worked out at 1.88.

As to LDYTADEDGVWYSVAPMNVRNGLA [R21N], the protein stability index came out at 1.65.

LDYTADEDGVWYSVAPMNVRCGLA [R21C]: the protein stability index stood at 2.63.

Regarding LDYTADEDGVWYSVAPMNVRAGLA [R21A], the protein stability index is 2.39.

LDYTADEDGVWYSVAPMNVRMGLA [R21M]: the protein stability index turned out to be 1.32.

As to LDYTADEDGVWYSVAPMNVRWGLA [R21W], the protein stability index was found to be 1.71.

On to LDYTADEDGVWYSVAPMNVRIGLA [R21I], for which the protein stability index was 2.04.

Regarding LDYTADEDGVWYSVASMNVRRGLA [P16S], the protein stability index stood at 1.79.

Take LDYTADEDGVWYSVAKMNVRRGLA [P16K]: the protein stability index turned out to be 1.95.

Consider LDYTADEDGVWYSVAQMNVRRGLA [P16Q], for which the protein stability index was 2.16.

Turning to LDYTADEDGVWYSVAGMNVRRGLA [P16G], the protein stability index came out at 2.08.
